# Assay results from patent publication US20180037649A1 (OSAKA UNIVERSITY, published 2018).
# B1: Dkk1-FLAG (wild-type human Dkk1 tagged with FLAG at the C-terminal) (ligand, UniProt O94907 32-266, looked up)
# chain: TLNSVLNSNAIKNLPPPLGGAAGHPGSAVSAAPGILYPGGNKYQTIDNYQPYPCAEDEECGTDEYCASPTRGGDAGVQICLACRKRRKRCMRHAMCCPGNYCKNGICVSSDQNHFRGEIEETITESFGNDHSTLDGYSRRTTLSSKMYHTKGQEGSVCLRSSDCASGLCCARHFWSKICKPVLKEGQVCTKHRRKGSHGLEIFQRCYCGEGLSCRIQKDHHQASNSSRLHTCQRH
# notes: Expressed in MDCK or X293T cells; pulled down from cell lysates with an anti-FLAG antibody; also called WT-FLAG; wild-type Dkk1-FLAG (WT); not shown: FLAG tag at the C-terminal
# B2: CKAP4 of S2-CP8 cells (endogenous) (receptor)
# chain: MPSAKQRGSKGGHGAASPSEKGAHPSGGADDVAKKPPPAPQQPPPPPAPHPQQHPQQHPQNQAHGKGGHRGGGGGGGKSSSSSSASAAAAAAAASSSASCSRRLGRALNFLFYLALVAAAAFSGWCVHHVLEEVQQVRRSHQDFSRQREELGQGLQGVEQKVQSLQATFGTFESILRSSQHKQDLTEKAVKQGESEVSRISEVLQKLQNEILKDLSDGIHVVKDARERDFTSLENTVEERLTELTKSINDNIAIFTEVQKRSQKEINDMKAKVASLEESEGNKQDLKALKEAVKEIQTSAKSREWDMEALRSTLQTMESDIYTEVRELVSLKQEQQAFKEAADTERLALQALTEKLLRSEESVSRLPEEIRRLEEELRQLKSDSHGPKEDGGFRHSEAFEALQQKSQGLDSRLQHVEDGVLSMQVASARQTESLESLLSKSQEHEQRLAALQGRLEGLGSSEADQDGLASTVRSLGETQLVLYGDVEELKRSVGELPSTVESLQKVQEQVHTLLSQDQAQAARLPPQDFLDRLSSLDNLKASVSQVEADLKMLRTAVDSLVAYSVKIETNENNLESAKGLLDDLRNDLDRLFVKVEKIHEKV
# notes: Used in lysates (IP, immunoblot) and on unfixed cells (staining)
# Legend:
# [1] = target: T1, deletion mutant CKAP4-HA ΔLZ (human, UniProt Q07065 1-602); experiment: co-IP with anti-FLAG antibody from X293T/Dkk1-FLAG cell lysate, immunoblot with anti-HA antibody
# T1 construct: not shown: HA tag
# T1 sequence: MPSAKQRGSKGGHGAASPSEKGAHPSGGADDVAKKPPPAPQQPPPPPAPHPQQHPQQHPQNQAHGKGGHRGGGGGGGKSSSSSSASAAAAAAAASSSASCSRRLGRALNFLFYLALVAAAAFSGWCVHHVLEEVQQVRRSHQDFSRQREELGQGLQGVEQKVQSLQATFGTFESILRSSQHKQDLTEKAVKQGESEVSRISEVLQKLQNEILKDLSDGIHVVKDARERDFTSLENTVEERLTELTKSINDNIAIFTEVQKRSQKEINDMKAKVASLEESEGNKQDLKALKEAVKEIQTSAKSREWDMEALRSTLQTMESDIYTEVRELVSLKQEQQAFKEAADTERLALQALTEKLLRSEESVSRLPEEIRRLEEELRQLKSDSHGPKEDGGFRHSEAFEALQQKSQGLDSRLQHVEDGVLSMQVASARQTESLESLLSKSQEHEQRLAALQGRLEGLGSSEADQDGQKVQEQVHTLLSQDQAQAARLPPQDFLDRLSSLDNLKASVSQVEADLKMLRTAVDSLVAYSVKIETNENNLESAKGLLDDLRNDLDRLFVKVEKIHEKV
# From the text: A lysate (Input) of X293T/Dkk1-FLAG cells in which wild-type CKAP4-HA (WT) or a deletion mutant CKAP4-HA (ΔLZ) was transiently expressed was immunoprecipitated with an anti-FLAG antibody, and then the cell lysate (Input) and the immunoprecipitates (IP) were subjected to the detection of HA and Dkk1 using an anti-HA antibody and an anti-Dkk1 antibody, respectively. The results are shown in the lower right panel in FIG. 2 (e). […] Namely, it was confirmed that a CRD-1 domain located on the N-terminal side of Dkk1 and a leucine zipper domain of CKAP4 were necessary for the binding between Dkk1 and CKAP4.
# [2] = target: p85α of S2-CP8 cells (endogenous) (human, UniProt P27986 2-724); experiment: co-IP with anti-CKAP4 antibody from S2-CP8 cell lysate (control shRNA or Dkk1 shRNA), immunoblot
# Description: A lysate (Input) of S2-CP8 cells in which control shRNA or Dkk1 shRNA (Dkk1) was stably expressed was prepared. The lysate was immunoprecipitated with an anti-CKAP4 antibody. Subsequently, the cell lysate (Input) and the immunoprecipitates (IP) were subjected to the detection of p85α, p110β, CKAP4 and Dkk1 using an anti-p85α antibody, an anti-p110β antibody, an anti-CKAP4 antibody and an anti-Dkk1 antibody, respectively.
# Sequence of p85α of S2-CP8 cells (endogenous) (P27986 2-724): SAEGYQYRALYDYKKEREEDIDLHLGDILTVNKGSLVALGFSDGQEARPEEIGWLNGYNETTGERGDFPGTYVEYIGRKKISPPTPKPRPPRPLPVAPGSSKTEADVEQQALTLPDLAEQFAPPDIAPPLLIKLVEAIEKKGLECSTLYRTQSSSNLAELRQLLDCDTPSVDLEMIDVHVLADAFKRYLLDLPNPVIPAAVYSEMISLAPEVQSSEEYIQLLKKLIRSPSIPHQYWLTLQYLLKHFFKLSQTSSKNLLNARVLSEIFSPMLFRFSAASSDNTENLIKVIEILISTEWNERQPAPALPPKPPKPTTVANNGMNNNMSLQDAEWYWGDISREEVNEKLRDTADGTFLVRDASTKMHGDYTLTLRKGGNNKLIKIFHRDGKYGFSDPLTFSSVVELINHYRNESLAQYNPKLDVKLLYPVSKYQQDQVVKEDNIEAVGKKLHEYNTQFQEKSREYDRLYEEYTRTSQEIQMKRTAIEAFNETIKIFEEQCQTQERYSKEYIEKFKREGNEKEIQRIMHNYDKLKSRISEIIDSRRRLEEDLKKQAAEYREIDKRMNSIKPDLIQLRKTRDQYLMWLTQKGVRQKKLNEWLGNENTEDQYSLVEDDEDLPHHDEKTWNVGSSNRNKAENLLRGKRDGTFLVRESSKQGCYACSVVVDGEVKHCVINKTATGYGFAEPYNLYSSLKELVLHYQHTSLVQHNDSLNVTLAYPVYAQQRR
Binder,binding result [1],binding result [2]
B1,no binding,–
B2,–,binds
